How the values were obtained:
Assay in all cases: ligand blot from native 4-15% PAGE of Sephacryl-300 fractions of hirudin-plasma
[1] = molecular target: T1, multimeric protein S in plasma (human, UniProt P07225 42-676)
T1 construct: mature; also called protein S multimers in plasma; putative protein S multimers
T1 sequence (looked up): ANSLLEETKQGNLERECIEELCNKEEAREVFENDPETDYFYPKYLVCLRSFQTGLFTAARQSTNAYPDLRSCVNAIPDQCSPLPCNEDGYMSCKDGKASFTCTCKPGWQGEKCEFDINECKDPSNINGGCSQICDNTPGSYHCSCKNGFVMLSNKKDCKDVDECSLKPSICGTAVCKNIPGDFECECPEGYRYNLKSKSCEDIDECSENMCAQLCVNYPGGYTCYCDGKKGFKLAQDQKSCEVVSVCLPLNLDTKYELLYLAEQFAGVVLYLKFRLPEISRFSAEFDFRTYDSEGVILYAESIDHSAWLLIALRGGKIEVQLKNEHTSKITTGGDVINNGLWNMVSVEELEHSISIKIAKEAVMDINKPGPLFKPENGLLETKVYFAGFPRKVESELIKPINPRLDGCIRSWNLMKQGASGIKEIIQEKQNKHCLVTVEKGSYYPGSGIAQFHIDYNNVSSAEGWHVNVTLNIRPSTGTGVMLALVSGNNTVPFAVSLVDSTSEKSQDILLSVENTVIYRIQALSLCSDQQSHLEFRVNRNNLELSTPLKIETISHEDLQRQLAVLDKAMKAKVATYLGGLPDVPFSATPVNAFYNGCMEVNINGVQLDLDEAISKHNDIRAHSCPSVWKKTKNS
Procedure: (§1) Gel filtration - - - Purified protein S preparations or hirudin-plasma (200 μl ) were fractionated on a 1×30 cm Superose-6 HR column using Fast Performance Liquid Chromatography (Amersham-Pharmacia, Piscattaway, N.J.) at a flow rate of 0.4 ml/min in Hepes-buffered saline (HBS). Hirudin and citrated plasmas (300 ul) were each mixed with 700 μl of 50 mM benzamidine and fractionated on a 1.6×60 cm Sephacryl-300 column at a flow rate of 0.4 ml/min in Tris-buffered saline. Fractions were analyzed for protein S antigen by ELISA, for protein S multimers by native PAGE, and for PS-direct. ELISAs were also performed on the fractions for FV, FX, and C4BP antigens
(§2) To further separate protein S forms in plasma, hirudin-plasma and citrated plasma were each subjected to gel filtration on a larger column (FIGS. 8B and 8C). […] Biotin-FXa could ligand blot (Heeb, et al. Protein S binds to and inhibits factor Xa. Proc Natl Acad Sci USA. 1994;91:2728-2732) to PS-C4BP, multimeric and monomeric protein S in fractionated hirudin plasma (FIG. 8C).

[2] = molecular target: T2, monomeric protein S in plasma (human, UniProt P07225 42-676)
T2 construct: mature; also called monomers
T2 sequence (looked up): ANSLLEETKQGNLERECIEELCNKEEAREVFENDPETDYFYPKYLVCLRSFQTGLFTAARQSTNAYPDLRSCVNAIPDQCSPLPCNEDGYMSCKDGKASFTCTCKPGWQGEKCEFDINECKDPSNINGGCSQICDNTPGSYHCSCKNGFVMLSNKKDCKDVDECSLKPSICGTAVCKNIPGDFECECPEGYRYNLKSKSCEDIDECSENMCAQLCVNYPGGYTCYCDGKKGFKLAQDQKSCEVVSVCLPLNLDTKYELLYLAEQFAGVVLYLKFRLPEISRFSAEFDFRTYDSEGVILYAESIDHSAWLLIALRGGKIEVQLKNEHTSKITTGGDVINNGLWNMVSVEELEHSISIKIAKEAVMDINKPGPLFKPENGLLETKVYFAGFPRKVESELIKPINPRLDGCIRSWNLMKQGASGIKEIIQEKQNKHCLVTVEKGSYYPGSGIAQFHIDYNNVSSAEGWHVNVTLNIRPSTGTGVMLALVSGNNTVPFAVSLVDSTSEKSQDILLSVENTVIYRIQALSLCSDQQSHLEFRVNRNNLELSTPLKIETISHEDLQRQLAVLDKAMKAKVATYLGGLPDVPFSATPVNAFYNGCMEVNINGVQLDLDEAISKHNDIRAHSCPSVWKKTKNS
Procedure: as §1, §2

[3] = molecular target: T3, Protein S-C4b-binding protein complex in fractionated hirudin-plasma (human, UniProt P07225 42-676; P04003 49-597; P20851 18-252)
T3 construct: Native complex from plasma; also called PS-C4BP; Cx
T3 sequence (looked up) 1: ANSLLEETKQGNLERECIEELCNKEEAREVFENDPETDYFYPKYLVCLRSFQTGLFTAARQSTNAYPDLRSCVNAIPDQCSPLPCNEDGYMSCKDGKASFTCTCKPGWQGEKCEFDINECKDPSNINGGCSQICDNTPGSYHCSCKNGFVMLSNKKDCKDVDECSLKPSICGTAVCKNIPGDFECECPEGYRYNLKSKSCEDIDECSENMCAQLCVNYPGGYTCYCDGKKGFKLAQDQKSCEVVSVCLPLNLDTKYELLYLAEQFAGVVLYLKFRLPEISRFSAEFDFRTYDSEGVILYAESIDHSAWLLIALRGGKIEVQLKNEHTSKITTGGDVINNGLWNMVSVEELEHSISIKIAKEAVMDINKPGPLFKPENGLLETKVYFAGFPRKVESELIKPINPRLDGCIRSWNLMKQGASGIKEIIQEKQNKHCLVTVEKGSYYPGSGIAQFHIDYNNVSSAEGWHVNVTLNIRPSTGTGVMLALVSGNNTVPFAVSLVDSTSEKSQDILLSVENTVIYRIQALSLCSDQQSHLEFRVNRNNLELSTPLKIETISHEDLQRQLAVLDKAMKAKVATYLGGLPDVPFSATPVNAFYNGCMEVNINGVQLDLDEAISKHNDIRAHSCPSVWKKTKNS
T3 sequence (looked up) 2: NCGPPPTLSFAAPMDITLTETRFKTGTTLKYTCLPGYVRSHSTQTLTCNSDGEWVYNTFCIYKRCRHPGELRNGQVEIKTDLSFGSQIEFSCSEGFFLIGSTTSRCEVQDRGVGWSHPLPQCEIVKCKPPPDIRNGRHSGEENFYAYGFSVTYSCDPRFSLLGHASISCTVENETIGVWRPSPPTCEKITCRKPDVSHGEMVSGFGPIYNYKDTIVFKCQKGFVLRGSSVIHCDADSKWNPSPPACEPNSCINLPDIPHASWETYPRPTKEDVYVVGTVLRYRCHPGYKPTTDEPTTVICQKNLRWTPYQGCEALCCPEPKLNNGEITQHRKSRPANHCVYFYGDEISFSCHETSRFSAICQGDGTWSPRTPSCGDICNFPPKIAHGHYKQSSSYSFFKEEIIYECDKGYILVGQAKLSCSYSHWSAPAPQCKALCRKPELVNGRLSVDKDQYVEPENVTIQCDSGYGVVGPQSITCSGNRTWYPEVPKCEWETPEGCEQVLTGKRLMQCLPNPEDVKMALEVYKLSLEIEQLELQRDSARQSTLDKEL
T3 sequence (looked up) 3: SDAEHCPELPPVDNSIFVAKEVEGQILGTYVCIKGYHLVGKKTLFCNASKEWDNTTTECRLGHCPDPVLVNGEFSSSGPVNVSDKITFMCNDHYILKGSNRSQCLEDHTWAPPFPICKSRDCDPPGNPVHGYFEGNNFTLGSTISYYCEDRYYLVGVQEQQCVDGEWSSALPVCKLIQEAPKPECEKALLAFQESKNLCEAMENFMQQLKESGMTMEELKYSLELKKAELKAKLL
Procedure: as §1, §2

binding result [1]: no binding
binding result [2]: no binding
binding result [3]: no binding
B1: Biotin-FX (other)
chain 1: ANSFLEEMKKGHLERECMEETCSYEEAREVFEDSDKTNEFWNKYKDGDQCETSPCQNQGKCKDGLGEYTCTCLEGFEGKNCELFTRKLCSLDNGDCDQFCHEEQNSVVCSCARGYTLADNGKACIPTGPYPCGKQTLER
chain 2: SVAQATSSSGEAPDSITWKPYDAADLDPTENPFDLLDFNQTQPERGDNNLTRIVGGQECKDGECPWQALLINEENEGFCGGTILSEFYILTAAHCLYQAKRFKVRVGDRNTEQEEGGEAVHEVEVVIKHNRFTKETYDFDIAVLRLKTPITFRMNVAPACLPERDWAESTLMTQKTGIVSGFGRTHEKGRQSTRLKMLEVPYVDRNSCKLSSSFIITQNMFCAGYDTKQEDACQGDSGGPHVTRFKDTYFVTGIVSWGEGCARKGKYGIYTKVTAFLKWIDRSMKTRGLPKAKSHAPEVITSSPLK
modifications: biotinylated (sites not given)

Source: patent US20070077603A1 (published 2007)
